Data reported in article PMC10322840.

Key:
[1] = target: Paracentrotus lividus RAF, 6 MYC tags (Paracentrotus lividus); test: co-IP; lysates of co-transfected HEK293T cells (200 ul at 0.5 mg/ml); mouse anti-myc 9E10 overnight at 4 °C, Dynabeads Pan mouse IgG 2 h; five washes in 50 mM Tris HCl pH 7.5, 150 mM NaCl, 10% glycerol, 0.2% Triton X100, 1 mM EDTA; blots with rabbit anti-HA and anti-Myc
[2] = target: Paracentrotus lividus RAF, 6 MYC tags; test: co-immunoprecipitation (IP anti-Myc of Pl. RAF, blot quantified); conditions: parent: 1; read off a plot

Chain of Paracentrotus lividus RAF, 6 MYC tags (Paracentrotus lividus) (main, as listed by the source): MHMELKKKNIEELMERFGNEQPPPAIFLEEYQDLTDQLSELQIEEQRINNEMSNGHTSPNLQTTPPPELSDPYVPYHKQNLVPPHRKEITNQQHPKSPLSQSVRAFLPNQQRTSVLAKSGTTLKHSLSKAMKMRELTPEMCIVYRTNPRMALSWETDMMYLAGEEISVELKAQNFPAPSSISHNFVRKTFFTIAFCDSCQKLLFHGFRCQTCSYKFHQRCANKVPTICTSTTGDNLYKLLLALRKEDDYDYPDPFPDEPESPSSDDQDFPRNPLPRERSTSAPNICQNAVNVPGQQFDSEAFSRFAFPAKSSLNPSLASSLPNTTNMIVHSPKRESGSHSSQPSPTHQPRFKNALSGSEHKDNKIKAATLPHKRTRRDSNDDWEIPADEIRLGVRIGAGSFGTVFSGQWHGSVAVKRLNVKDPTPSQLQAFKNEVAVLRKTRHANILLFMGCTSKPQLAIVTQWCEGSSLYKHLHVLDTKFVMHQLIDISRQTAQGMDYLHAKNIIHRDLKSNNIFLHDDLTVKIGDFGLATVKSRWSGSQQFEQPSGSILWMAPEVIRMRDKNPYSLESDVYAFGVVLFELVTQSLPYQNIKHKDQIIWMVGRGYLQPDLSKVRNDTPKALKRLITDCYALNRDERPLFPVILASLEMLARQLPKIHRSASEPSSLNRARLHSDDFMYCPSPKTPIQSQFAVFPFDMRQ

Row | Substance | fold change of RAF co-immunoprecipitated, against wild-type KSR3 [1] [fold] | ratio to parent (arbitrary units) [2]
1 | Paracentrotus lividus KSR3 S361E (natural protein) | 1.5 | –
2 | Paracentrotus lividus KSR3, wild type, 3HA-tagged S361E; R364H | – | 0.46
